# Experimental data reported in the DeepSol protein solubility set.
# Test: soluble on expression in E. coli; label from the status in PepcDB or PDB records
row,Sequence,soluble on expression in E. coli
1,MTIKSDKWIRRMAQEHGMIEPFVERQVRGADDSRVISYGVSSYGYDVRCAAEFKVFTNIHSAVVDPKNFDEKSFVDINSDVCIIPPNSFALARTVEYFRIPRDVLTICLGKSTYARCGIIVNVTPLEPEWEGHVTLEFSNTTNLPAKIYANEGVAQMLFLQSDEACEVSYKDRGGKYQGQR,soluble
2,MTISNSNLLKPFITGTELPPFKEDVFSKTEEQFKKSTYGKSLFISGNENLVNISAEKIDEIKNSKNFFSNIVNIIILLIKHPDKILPILHGCPVESIEVIKNAKRTGQWSYEMTDKNGQSIEVSYIFTDTIDDKSDGKLCLKICNSCNQNDSSTHEYKIDHQQLKNHIRQLEEWALLEKFYDNNAYYSKRTKQLEKKIADAGFITRKVKAENFNVKEFKDDIASMLCEQPPMRTHQISSSGYVSADKLHKLYKTNLEDAQRDLKTTPVDIDGVSLKSITREKIAEEIAKKTAEIIAKQNAKSIEEKNIEKNKKQTNSEDNFVLKFSPEEINEMLLDYSDEEQKKLRPFFTSDHIYCLFDAFSQGLHNVARNGSPRYAGLLRQIASKSAILQDFDQQLFWRTFTGGVLHRHISVKSEPEKTDVWRFSSQFDFPHINENGELSRTVLMFEGVAESNFKDIANHSSECFSYRCYAAPLDANAKK,soluble
3,MTIVIGFEGSANKIGIGIIKDGEVLSNPRRTYITPPGQGFLPGETAKHHRSVILTVLQEALDEAGLKAADIDCVAYTKGPGMGAPLVTVAIVARTVAQLWGKPLLGVNHCIGHIEMGRLITNAQNPTVLYVSGGNTQVIAYSERRYRIFGETIDIAVGNCLDRFARVIKISNDPSPGYNIEQMAKKGNKYIELPYTVKGMDVSFSGILSYIEDAAHKMLSTDQCTPEDLCFSLQETVFAMLVEITERAMAHCGSQEVLIVGGVGCNLRLQEMMGVMCKERGARLFATDESFCIDNGAMIAQAGWEMFRSGHVTELPDSWITQRYRTDEVEVTWRD,soluble
4,MTIYPKLILDALATVRYPGTGKNLVEAGMVEDNIRIEGMKVSFSLIFEKPTDPFMKSVIKAAETAILTHVGKEVEIVGNISVKTVQAARPEVGKLLPHVKNIIGISSGKGGVGKSTVSANLAVALAKLGYKVGLLDADVFGPSMPKMFQVEDARPYAEKIDGRDMIIPVEKYGVKLLSIGFFVDPDQATLWRGGMASNALKQLIGDAAWGDLDYFLIDLPPGTSDIHLTVVQTLALTGAVVVSTPQAVALADARKGINMFTNDKVNVPILGLVENMAWFTPAELPENKYYLFGKEGAKKLAEEMNVPLLGQIPIVQSICEGGDKGTPVALDENTVTGRAFLALAASVVRQVDKRNVEMAPTKIVELHKLEHHHHHH,soluble
5,MTKEVLIHQIIDVLARAGFALSDRCNIRPRSFDVAARKDDTLLLCKVLFNIDGLNEETAREMKYLAEYLGGSAIVVGAKTRDQMLEDSVVYMRYDILALSVQTLYDYFVENIRPLVSAAPGGLYVSIEGDLLKKARTTQSMSLGTLASMVGVSRRTISKYEEEGMDASIDVVLHLEDIFGVELAKPIDILKSCGSRKPRKKAEPEKEEPKGKPGTLLPEDLILNTISMLGYDVLPTAQAPFKAISRDKSSVILTGVSEFNTTVIKRAHLMSSISCITETQSVFIINGRSKLKSVENTVLIEKKELDTISDSQELLDFIEERKDTHEA,not soluble
6,MTKKQKEILFCDYFEEWVEVYKVGAIAKITLAKYYNAAKQLRDLCPKLFISDFDRREYQRIINVYAETHEKQTVKDFHHHVKACIKDLFHDGLIDKDPTYRVVIKGAELEHHHHHH,soluble
7,MTKLHDISEHEKAIDFSIYLDSLPQYQHLASQDESHRHRALGIYSDFLSEENKSKRAALQNYKNYISLTERDPNQLAYPELQETRIDAVFSPDFMGSFAKSNGRHEETPMDGPGGYDMRSYLPYQTAPSGSLGNISTASSSCSSPPGTPAPSGKGRSPQAGGKMTSSGKGKKRLDKDSDEYRQRRERNNLAVRKSRDKAKMRNLETQHKVLELAAENDRLQKRVEQLSRELATLRNLLSATGQC,not soluble
8,MTKLQLKYRELKIISVIAASENISHAATVLGIAQANVSKYLADFESKVGLKVFDRTTRQLMLTPFGTALLPYINDMLDRNEQLNNFIADYKHEKRGRVTIYAPTGIITYLSKHVIDKIKDIGDITLSLKTCNLERNAFYEGVEFPDDCDVLISYAPPKDESLVASFITQYAVTAYASQRYLEKHPISRPDELEHHSCILIDSMMIDDANIWRFNVAGSKEVRDYRVKGNYVCDNTQSALELARNHLGIVFAPDKSVQSDLQDGTLVPCFQQPYEWWLDLVAIFRKREYQPWRVQYVLDEMLREIRHQLAQSQQLRPEQAAESED,soluble
9,MTKPLVIFGSGDIAQLAHYYFTRDSEYEVVAFTVDRDYASVSEFCGLPLVAFDEVAQRFPPESHAMFVALAYAKLNGVRKEKYLAAKALGYELASYVSSHATVLNDGRIGENVFLLEDNTIQPFVSIGNNVTLWSGNHIGHHSTIHDHCFLASHIVVSGGVVIEEQSFIGVNATLRDHITIGSRCVVGAGALEHHHHHH,not soluble
10,MTKRKNASNAGSSPKKEKKSETFAALKSVKAEKRPAADSSDSEPEDFEEEQITHTEAEETRNEDNGQAIYEPDVMRPLIESFLEFLVQRQSETSTVHNMENKVAEWAETRRDDNIDAGLFVLDFRKYLKSAVKFKNLQMNDSCAAISTYLNSEKSLVEYKSMPDRPPTKIQLYIKKHQIMLKGIGGEPMKNAYKAMNADTEGAKELDELLREASLQYIPQLQEFLDTHPNLTEEQKRSIVNKMKMLNKKYNSKEISSTPKKRSSKKDPETAFSLFCRTKNDKYRDLSDEEREIKLQKKFEKLPAAQKDIYESLAISM,soluble
11,MTKRNTPQRRHNILALLNEQGEVSVDDLARRFETSEVTIRKDLAALETNGLLLRRYGGAIPLPHELISESSQPVSRYKKAIARAAVSRIREHARIIVDSGSTTAALIPELGQQPGLVVMTNSLHVARALTDLEHEPVLLMTGGTWDPHSESFQGQVAEQVLRSYDFDQLFIGADGIDLIRGTTTFNELLGLSRVMAEVAREVVVMVEADKVGRKIPNLELPWSSIHTLITDDRLPVEARDQIQARGINLICAAVSLEHHHHHH,not soluble
12,MTLDLDNMTQAEFDEVMAEIQLQSPNIFQLISDFVNKKVTSVEIDDLLNMKRAETGKALSPLQIQELQYMLEDFSPELIHEALKEAVSQGKANFAYIKVILNRWKQDNLLTVELVRNSRAAREAKKQQTNQLEPTSYEDWIPTQEKPF,not soluble
13,MTLDYHQPTTTNTTLPDDIHMKDPEEEEFEEYEDELLEEEEEFDEELEELENSDSASSLVSAGSPHGSSSSNGSHGSSPPLQVQSPSQGSGSSGSPTGQPEKRHICTVCGKGFSYFSILESHKRSHTGEKPYNCHFCQKTFAQKATLQVHERTHTGERPYKCRYCEKTFAQYGTKTVHEKSAHLGIRNYKCPKCDKLLSSPSALYTHKKTHGDKTFRCDFCPKTFALKNYLKLHVKQVHEQNERKHVCVYCNKGFAYAGSLQVHVRTHTGERPYVCKFCPKAFASQGNLQSHERTHTGERPYSCQFCQRTFIQKSQLTAHESTHLTQKHSVNPDSTTADILPVAGSVTDHQMVGNYECTFCNKKYPYASSLYIHMRKHTEKSAYSCDGCGKPYSQKISLNIHQDQCEAFKNRLKTTDSQFSHNCDGCGKSFVQRIALQIHVDSCEPHKNLARLKLSQQQNQNQNSDSESDTEMKICPLPNPPLTLAPTHQQIPPPVNIYAQQPPPNPLGSILGNTSLTPQTLNFGLPSLSSASFSSLNAHAPFTPVELPNSADFGPLTASKPHAVPFHPSEMCLSAFRKVPESSSISGLGSLSTSILSTQLLLQLQHTPDFNYLLNQNLLSSLAGLSGLSATLGPQLQATTPTSANQQPFLMAAPSAVQPLV,not soluble
14,MTLEKKEYGAPGFWPGSMIGRVHAFETPAPLTRAQLDRLRDEFFETRTEGHLEIWTAIRAASHAQEAGDDELAYAIITAVGILPAEVGPAGEGLGERIPFAEQPLDRLLGMICGCCFPAFTRYRTLERVYDQRGFLYETPKECIATPSNVLPDESTEASAR,not soluble
15,MTLHKERRIGRLSVLLLLNEAEESTQVEELERDGWKVCLGKVGSMDAHKVIAAIETASKKSGVIQSEGYRESHALYHATMEALHGVTRGEMLLGSLLRTVGLRFAVLRGNPYESEAEGDWIAVSLYGTIGAPIKGLEHETFGVGINHI,soluble
16,MTLSIAHLGPPGTYAEQAAVLYVNWLTKSTGDEATLSPYPTISQSLHAVADGQAHLAVVPVENSIEGSVTTTLDALWQLDSLRIQLALVLPIVHTLISCASGLDKIETVYSHPQALAQCQGWLERFLPTVQIVPSNSTTEALQRLEQETTTAAIASSRAAQLYNLPILATGINDYPENCTRFWVVSQGEADAGYQTSKVPTSHTSLAFSMPANTPGALVKPLQIFAQLGINLSRIESRPTKRSLGEYLFFMDLEADVKESQMQSALAELTIHTEILKILGAYNVLPIGAFT,not soluble
17,MTLTKGSFTYSSGEEYRGEWKEGRRHGFGQLVFADGGTYLGHFENGLFNGFGVLTFSDGSRYEGEFSQGKFNGVGVFIRYDNMTFEGEFKNGRVDGFGLLTFPDGSHGIPRNEGLFENNKLLRREKCSAVVQRAQSASKSARNLTA,soluble
18,MTLTMGFIGFGKSANRYHLPYLKTRNNIKVKTIFVRQINEELAAPYEERGVYFTTDLDELLNDKEIQVVTICTPAHTHYELAKKVILAGKSVIVEKPFCDTVEHAKELLALGREKGVVVMPYQNRRFDGDFLAVKQVVEQGFLGDIIEIESHIDYFRPGSITHEAPKEEGSFYSLGIHTMDRMISLFGRPNTVTYDIRNNEVEGAVDNYFDVGLHYGNQLKIKLKTNHIVAKDYPRFIVHGTNGSFIKYGEDQQENDLKAGIMPESAGFGEDSPMYYGIAKYRNANGDWIEKQIKTPLGDYGRFYDAAYDTIVNGAPKLVKDEEAVTNIEILENGFAAPSPSVYKLEALHLNELEHHHHHH,soluble
19,MTLTQIHALLAVLEYGGFTEASKRLYMTQSAVSQAISALEEELGVDILIRERRKEIELTAAGSRIVRHLRAIQRDVNAVKEIAEQEKKNPARTLRIGCFPSACACILPGVIRYFESHHPNVKIIPYEENSTAIIDSLQDGSIDAGFVPFPVNGMYCVPIYRDKFTVVVPENHPLAANSTVTVEELMDEPLIVSKGRYELSIMALFKEKGIEPIFKYEFNHPDTALNFIRQGLGIALLPELTLKATTGKLCSVALEPTFYRQISLLAKEPPVEGSPLFLLQKCMETLTDEGLL,not soluble
20,MTLVSIVAPNLIEQGKVMEMLQGGRDNAIYRTGDRVSRPASSWTMTVHQLLNHLHSNGFTQCPKVIGIEGGKEWLSFVEGDTFNYPLQGSIASVTALLSAAKMLRRMHDASEDFLISHQSEVCHWMLPDRVPQEVICHGDFMPYNVALNGETVVGVFDFDTAHPAPRLWDVAFSIYGWAPFKTDENDRMGNLEQQIQRAKLFCDAYGCSKLERENLVDVMTLRLTALVDYMRLMASSRDERFQANLEEGHHIAYLQDIDYLRQHHQAITLGMLKER,not soluble
21,MTLYRQLLAREKENNPIRVGVIGAGQMGFGMISQIAAIPGMSVVGISDIHVDAAKKAADAYNATATKKEKILLSNDFKEIIHSDLVEVIVDATGVPEVGAKISLETLLAKKQLVLLNVEIDITIGPLMKKLYDSAGLVYTGSDGDEPAAITELYEFSKSMGMEVLVAGKGKNNKLKISANPDSCQVEADGKNMASHMLAAFQDGTKTMAEMNLLSNAIGYVPDVVGMHGISGDVDSVIKDLDLKEQGGILNQFGVVEYVDGLAPGVFVIVKGQNEGVSHELSYLMKKGERDHHILYRPYHLASLETPLTIAKAVLNHDHAIVPMGAPVSETVAVAKKDIAAGERLDGIGGFCVRGVLETHVDMAAEGHIPIGLISGEVVARRNIKAGTFITDEDVSLDESTTVWKLRKLQDETFSN,not soluble
